The supplement of paper PMC10724198
± gives the standard deviation of the averaged measurements.

Test system: Saccharomyces cerevisiae
Assay: protein stability index of tFT-peptide fusion (C-terminal peptide) (PSI (0-1 scale)); higher = more stable (slower turnover)
Conditions: genetic background: wild type; temperature: 30 C
Experimental: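 Multiplexed protein stability (MPS) profiling in S. cerevisiae. Random 12-aa peptides (tFT-X12 library) are fused to the C-terminus of a sfGFP-mCherry tandem fluorescent timer, after mCherry and a GGGS linker. Cells are FACS-sorted into 8 mCherry/sfGFP bins and deep-sequenced. The protein stability index (PSI) is the read-weighted bin average, scaled from 0 (unstable) to 1 (stable). Only peptides with >10 reads are reported; cells were grown at 30 °C in SC-His with glucose.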
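Note: PSI is a weighted mean of sequencing reads over stability bins, variants kept only with over 10 reads, mCherry proximal and sfGFP distal, peptide attached via GGGS linker.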

Sequence	protein stability index
FSLPPAASDFPS	0.685 ± 0.015
FSLPSVPCATYR	0.678 ± 0.043
FSSRLVFFFAAP	0.667 ± 0.036
FSSSMFPPPLFV	0.662 ± 0.0056
FSTTSFPPSFFP	0.711 ± 0.042
FSVLSPHPLHPL	0.753 ± 0.093
FSVPRFVSISGI	0.6 ± 0.034
FSVVGVFNIYGM	0.6214 ± 0.0023
FTGACRCLDGPR	0.669 ± 0.055
FTLLLFVPSLGS	0.618 ± 0.0082
FTPSSLRGSLLA	0.687 ± 0.021
FTQDYRRKTMSH	0.604 ± 0.064
FTYFLPPPALCS	0.521 ± 0.02
FVEIRGGGDRRM	0.706 ± 0.013
FVFPFHSRGVSQ	0.647 ± 0.015
FVGACCGGSVEG	0.721 ± 0.036
FVGFVFSSAVGL	0.684 ± 0.011
FVHEHQPRHEST	0.677 ± 0.028
FVIPLLRWGRTP	0.663 ± 0.053
FVPSSVFLFCLG	0.545 ± 0.023
FVRWGWAVMLGG	0.571 ± 0.013
FVVRGVFVSGFW	0.582 ± 0.019
FWIRGVTRCVWC	0.724 ± 0.053
FWPPLTNLCTLL	0.687 ± 0.011
FWVESGVFFFRP	0.667 ± 0.017
FYRTRQSASPNV	0.688 ± 0.046

Sequence	protein stability index
GAARGWLPGAGW	0.727 ± 0.04
GADGGLVSLGVS	0.743 ± 0.026
GAECVSGWGGET	0.709 ± 0.035
GAFFPGPVLFLT	0.517 ± 0.013
GAFLPLTCDIIC	0.598 ± 0.013
GAGASEGEPMED	0.7 ± 0.046
GAGCRDSSRRRT	0.687 ± 0.037
GAGGAGAGAGGG	0.639 ± 0.0092
GAGRYVLNPCCS	0.678 ± 0.034
GAGVCEQGLALA	0.649 ± 0.091
GAHRRDTYTVIG	0.682 ± 0.011
GAIVLMSCRNVI	0.634 ± 0.04
GAKGRGKERRGK	0.666 ± 0.051
GAKQSSKRPRAS	0.719 ± 0.028
GALEMNVCVPWL	0.65 ± 0.017
GALFRRACSLLF	0.697 ± 0.039
GALGGDSGKGGG	0.677 ± 0.15
GALSDSLRVYTP	0.688 ± 0.041
GAPLFTYVIVRR	0.621 ± 0.07
GAPTYTGEPRTP	0.742 ± 0.032
GAPWPLAVVAGP	0.5995 ± 0.0013
GASGRKPGCDRL	0.67 ± 0.062
GASLFSEVMARE	0.688 ± 0.027
GASPTNSPLIYT	0.679 ± 0.0077
GASSPVEVGAAG	0.695 ± 0.022
GASVSCQWFCGA	0.694 ± 0.015

Sequence	protein stability index
GATLWGMAWGAR	0.682 ± 0.012
GAVGSPVEFGGR	0.688 ± 0.063
GAVQGVALRGGS	0.744 ± 0.1
GAVRWGGAGVGV	0.73 ± 0.063
GAWWVHGRRVGR	0.738 ± 0.046
GAYKVPSYGINY	0.695 ± 0.021
GCAFVVLLSRGF	0.604 ± 0.083
GCCAPWTFDDDL	0.7117 ± 0.0065
GCFYYWSVNVSY	0.5599 ± 0.0036
GCGAGEVWGVGG	0.674 ± 0.014
GCGGRARAGAGG	0.697 ± 0.089
GCGGSREAVVNG	0.662 ± 0.042
GCGLVGGRWFRW	0.67 ± 0.034
GCIGGMAPWGGL	0.664 ± 0.0097
GCIPFELLECGF	0.663 ± 0.071
GCLGVRMFRVGG	0.59 ± 0.015
GCMVFTGGKRVL	0.672 ± 0.03
GCPIYSIIQIHR	0.66818 ± 0.00019
GCRGVVVDGCGW	0.593 ± 0.0073
GCRGVWGWVGRG	0.74 ± 0.084
GCSFVLCRGSNA	0.675 ± 0.034
GCSNESVGVISG	0.644 ± 0.024
GCVGGGDWRFNV	0.566 ± 0.027
GCVHDLGVISCQ	0.639 ± 0.011
GCVVSGCGAGVV	0.5755 ± 0.0057
GCWAFGWLLQYS	0.574 ± 0.014

Sequence	protein stability index
GDERGAGRVGGS	0.626 ± 0.0064
GDGVIVEVEGVN	0.675 ± 0.071
GDLKWVGLGVQR	0.687 ± 0.03
GDMVRVSYRGRR	0.674 ± 0.053
GDPVKCSNSKDK	0.685 ± 0.012
GDSPLQAPPSLL	0.708 ± 0.1
GDVGGLFYVSLL	0.7569 ± 0.0027
GDVSYRWLRACT	0.6576 ± 0.00085
GDWQGRADGAVI	0.671 ± 0.071
GEAGGEESEEGY	0.676 ± 0.042
GECAELSSVGGG	0.664 ± 0.035
GEGGENRRNGTV	0.7 ± 0.12
GEGHVRCCFSLR	0.699 ± 0.013
GEGRGDGEEGTG	0.679 ± 0.035
GEISLSGRYRAV	0.691 ± 0.032
GEKDGAVGRGEV	0.614 ± 0.02
GERAGGPGRGRE	0.683 ± 0.069
GERGAYVVGVRW	0.782 ± 0.019
GEVGRGGEWGLD	0.711 ± 0.077
GEVSSIVHIGPK	0.684 ± 0.03
GEWCGGVAVFWR	0.693 ± 0.028
GEWIDVSGCRRG	0.805 ± 0.28
GEYRECVSWAGG	0.721 ± 0.07
GFALSFCFCFPL	0.558 ± 0.029
GFDVGKRGRFGL	0.635 ± 0.09
GFFFALGPPFSG	0.695 ± 0.019

Sequence	protein stability index
GFGFWRNLFYWS	0.657 ± 0.048
GFKIEVIQASGS	0.683 ± 0.025
GFPASVCGCMLW	0.651 ± 0.047
GFRCTVWGRAVI	0.637 ± 0.052
GFSDCGLYRVSC	0.713 ± 0.0097
GFSRLTPDQRQK	0.7373 ± 0.0063
GFTGWGRRGLGG	0.716 ± 0.076
GFTQLQNERVDG	0.785 ± 0.1
GFVVGVGIVSWG	0.6108 ± 0.0029
GFWWGCGGFCFC	0.685 ± 0.023
GFYAWAISYLWQ	0.509 ± 0.0086
GGAGHGAGAVWG	0.71 ± 0.037
GGALNGVGNGEL	0.67 ± 0.053
GGARGLLRGLLG	0.755 ± 0.085
GGCDVCGVQWIG	0.73 ± 0.054
GGCGAKWLSGGG	0.64 ± 0.025
GGCSGGNGGCDG	0.678 ± 0.028
GGDDKREPGGAR	0.6603 ± 0.0025
GGDFYEGVKNGK	0.714 ± 0.11
GGELVKGWGSRV	0.678 ± 0.072
GGETGGRWHKKQ	0.672 ± 0.069
GGEWGDRRKSGV	0.647 ± 0.059
GGFCRLRYLVCP	0.544 ± 0.039
GGFTAPLVLSPR	0.686 ± 0.071
GGGAADGGGGRG	0.646 ± 0.059
GGGAGERMRDGR	0.67 ± 0.026

Sequence	protein stability index
GGGARSPSGCAN	0.712 ± 0.019
GGGERFGLGGRM	0.659 ± 0.049
GGGFVGGTVAAV	0.725 ± 0.011
GGGGAAGWGAVG	0.688 ± 0.015
GGGGALGRVWPG	0.685 ± 0.02
GGGGAVRAWGLR	0.736 ± 0.019
GGGGEAWGGLRW	0.775 ± 0.055
GGGGERGGVKRG	0.663 ± 0.02
GGGGGASMSGTP	0.687 ± 0.017
GGGGGCGVAGGV	0.71 ± 0.026
GGGGGFAPGVTG	0.698 ± 0.046
GGGGGFGVVRVG	0.651 ± 0.032
GGGGGGFRVVVG	0.705 ± 0.03
GGGGGGGEWVGG	0.656 ± 0.05
GGGGGGGGGGGG	0.65 ± 0.04
GGGGGGGGRRPG	0.616 ± 0.0097
GGGGGGGGSSCA	0.685 ± 0.067
GGGGGGGGVVVR	0.686 ± 0.016
GGGGGGLVGQGD	0.673 ± 0.017
GGGGGGWGGGVG	0.665 ± 0.021
GGGGGNAGSHLG	0.673 ± 0.018
GGGGGRGGVVVR	0.682 ± 0.014
GGGGGRSSPGGS	0.678 ± 0.073
GGGGGWGGAGGV	0.737 ± 0.048
GGGGLKVVGGGS	0.661 ± 0.032
